Biological target: recombinant CLEC-2, monomeric, as used in the surface plasmon resonance studies (UniProt Q9P126 55-229)
Assay: SPR

Chain of recombinant CLEC-2, monomeric, as used in the surface plasmon resonance studies (Q9P126 55-229): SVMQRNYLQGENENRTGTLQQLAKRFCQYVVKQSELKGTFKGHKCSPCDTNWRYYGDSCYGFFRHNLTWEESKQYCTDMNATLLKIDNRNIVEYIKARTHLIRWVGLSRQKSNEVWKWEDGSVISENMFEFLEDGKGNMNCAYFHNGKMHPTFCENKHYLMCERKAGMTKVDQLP

B1: recombinant podoplanin fused at its C-terminus to the human IgG1 Fc region (Fc fusion, UniProt Q86YL7 23-131, looked up)
chain: ASTGQPEDDTETTGLEGGVAMPGAEDDVVTPGTSEDRYKSGLTTLVATSVNSVTGIRIEDLPTSESTVHAQEQSPSATASNVATSHSTEKVDGDTQTTVEKDGLSTVTL
Question: With B1 as the binder, how does the Kd read?
Answer: 24.5 ± 3.7 µM

— PMC2749330 (The Biochemical journal, 2008)
